We go through 38 molecules from paper PMC314469, “Protein Interaction Networks by Proteome Peptide Scanning” (PLoS Biology, 2004).

The target of experiment [1] is T1, amphyphisin SH3 (AMPH_HUMAN), P49418.
T1 chain: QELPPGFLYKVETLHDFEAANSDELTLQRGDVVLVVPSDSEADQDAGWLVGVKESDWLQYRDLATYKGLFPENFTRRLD
As to the kind of experiment: SPOT array.

The target in experiment [2] is endophilin SH3 (SH3G2_HUMAN), Q99962. The experiment in a line: SPOT array.

B1: P23246 281-294 (peptide)
chain: NLSLLRRPGEKTYT
For the molecule B1, the normalised SPOT signal, Boehringer light units (BLU); mean over the file's lines of this peptide in experiment [1] amounted to 29.7; in experiment [2], 23.4.

B2: Q92187 271-284 (peptide)
chain: NKVPIKRPSTGLLM
As for B2, the normalised SPOT signal, Boehringer light units (BLU); mean over the file's lines of this peptide in experiment [1] is 6.6; in experiment [2] it was 366.

B3: Q9NNY5 699-712 (peptide)
chain: NLLPPKRPIKEVLT
As for B3, the normalised SPOT signal, Boehringer light units (BLU); mean over the file's lines of this peptide in experiment [1] came out at 370; in experiment [2], 1560.

B4: Q9Y367 343-356 (peptide)
chain: NFGDLGRPGRGGRG
B4: the values for the normalised SPOT signal, Boehringer light units (BLU); mean over the file's lines of this peptide in experiment [1] and in experiment [2] were 895 and 882, respectively.

B5: Q9Y6A1 1-14 (peptide)
chain: MWGFLKRPVVVTAD
As to B5, the normalised SPOT signal, Boehringer light units (BLU); mean over the file's lines of this peptide in experiment [1] was 37.8; in experiment [2] it was 121.

B6: P19099 413-426 (peptide)
chain: NAALFPRPERYNPQ
B6: the normalised SPOT signal, Boehringer light units (BLU); mean over the file's lines of this peptide in experiment [1] was 699; in experiment [2] it was 63.6.

B7: Q9P2M8 940-953 (peptide)
chain: MSTPLRRPSASETV
Regarding B7, the normalised SPOT signal, Boehringer light units (BLU); mean over the file's lines of this peptide in experiment [1] is 18.3; in experiment [2], 228.

B8: O75560 490-503 (peptide)
chain: NLFGPKRPKALKLL
Take B8: the normalised SPOT signal, Boehringer light units (BLU); mean over the file's lines of this peptide in experiment [1] amounted to 113; in experiment [2], 1970.

B9: O75925 239-252 (peptide)
chain: NGVEPKRPSRPINI
For B9, the normalised SPOT signal, Boehringer light units (BLU); mean over the file's lines of this peptide in experiment [1] was 4650; in experiment [2] it was 35.6.

B10: Q96IB4 40-53 (peptide)
chain: MTVAIRRPGVPGAP
For the molecule B10, the normalised SPOT signal, Boehringer light units (BLU); mean over the file's lines of this peptide in experiment [1] amounted to 55.2; in experiment [2], 80.3.

B11: P27708 1830-1843 (peptide)
chain: MTTTPERPRRGIPG
Turning to B11, the figures for the normalised SPOT signal, Boehringer light units (BLU); mean over the file's lines of this peptide in experiment [1] and in experiment [2] were 9560 and 2030, respectively.

B12: Q9ULP1 1037-1050 (peptide)
chain: NKIEFKRPGKAANK
As for B12, the normalised SPOT signal, Boehringer light units (BLU); mean over the file's lines of this peptide amounted to 124 in experiment [1] and 128 in experiment [2].

B13: Q9NYJ2 360-373 (peptide)
chain: NFGNLPRPGRGARG
Turning to B13, the normalised SPOT signal, Boehringer light units (BLU); mean over the file's lines of this peptide in experiment [1] worked out at 946; in experiment [2], 1340.

B14: Q9NWE7 371-384 (peptide)
chain: NGYFFKRPYPFVLF
Consider B14, for which the normalised SPOT signal, Boehringer light units (BLU); mean over the file's lines of this peptide in experiment [1] is 64.4; in experiment [2], 106.

B15: O43776 380-393 (peptide)
chain: NFQPPKRPFKRMNY
B15: the normalised SPOT signal, Boehringer light units (BLU); mean over the file's lines of this peptide in experiment [1] stood at 793; in experiment [2], 525.

B16: Q12920 238-251 (peptide)
chain: NIEKIKRPRSSNAE
With B16, the values for the normalised SPOT signal, Boehringer light units (BLU); mean over the file's lines of this peptide in experiment [1] and in experiment [2] were 26.5 and 55.4, respectively.

B17: Q14676 96-109 (peptide)
chain: NGTQILRPPKVLSP
As for B17, the normalised SPOT signal, Boehringer light units (BLU); mean over the file's lines of this peptide amounted to 5 in experiment [1] and 150 in experiment [2].

B18: O15050 583-596 (peptide)
chain: NSEHFHRPLRRSEA
For B18, the normalised SPOT signal, Boehringer light units (BLU); mean over the file's lines of this peptide is 512 in experiment [1] and 199 in experiment [2].

B19: Q13873 1-14 (peptide)
chain: MTSSLQRPWRVPWL
B19: the normalised SPOT signal, Boehringer light units (BLU); mean over the file's lines of this peptide in experiment [1] is 506; in experiment [2], 227.

B20: Q9P2M9 345-358 (peptide)
chain: NIQTLDRPIKKGPV
For the molecule B20, the normalised SPOT signal, Boehringer light units (BLU); mean over the file's lines of this peptide in experiment [1] amounted to 16.4; in experiment [2], 58.7.

B21: Q96JI4 1223-1236 (peptide)
chain: AREEFRRPRESLLN
As to B21, the normalised SPOT signal, Boehringer light units (BLU); mean over the file's lines of this peptide in experiment [1] is 19.8; in experiment [2] it was 27.4.

B22: P35711 136-149 (peptide)
chain: NEPHIKRPMNAFMV
As to B22, the values for the normalised SPOT signal, Boehringer light units (BLU); mean over the file's lines of this peptide in experiment [1] and in experiment [2] were 46.1 and 0, respectively.

B23: Q9ULU1 327-340 (peptide)
chain: NMNRFDRPDRNVRQ
With B23, the normalised SPOT signal, Boehringer light units (BLU); mean over the file's lines of this peptide in experiment [1] worked out at 3660; in experiment [2], 452.

B24: Q9HC40 116-129 (peptide)
chain: NEDYPRRPLTRARS
B24: the normalised SPOT signal, Boehringer light units (BLU); mean over the file's lines of this peptide in experiment [1] was 393; in experiment [2], 690.

B25: Q13308 4-17 (peptide)
chain: ARGSPARPRRLPLL
As for B25, the normalised SPOT signal, Boehringer light units (BLU); mean over the file's lines of this peptide in experiment [1] stood at 6690; in experiment [2], 1930.

B26: P53539 138-151 (peptide)
chain: ARARPRRPREETLT
Regarding B26, the values for the normalised SPOT signal, Boehringer light units (BLU); mean over the file's lines of this peptide in experiment [1] and in experiment [2] were 42.3 and 181, respectively.

B27: Q9Y5X7 8-21 (peptide)
chain: NINGIRRPLQGVAN
For B27, the normalised SPOT signal, Boehringer light units (BLU); mean over the file's lines of this peptide in experiment [1] was 17.3; in experiment [2] it was 44.7.

B28: O43284 274-287 (peptide)
chain: NSQAPRRPWLASHM
With B28, the figures for the normalised SPOT signal, Boehringer light units (BLU); mean over the file's lines of this peptide in experiment [1] and in experiment [2] were 88.2 and 6860, respectively.

B29: Q9H251 2718-2731 (peptide)
chain: NEPLFVRPPKGSPQ
On to B29, for which the normalised SPOT signal, Boehringer light units (BLU); mean over the file's lines of this peptide worked out at 215 in experiment [1] and 154 in experiment [2].

B30: Q96TH1 910-923 (peptide)
chain: NSFIPKRPIPTIKD
Take B30: the normalised SPOT signal, Boehringer light units (BLU); mean over the file's lines of this peptide in experiment [1] came to 49.2; in experiment [2], 556.

B31: Q9Y284 5-18 (peptide)
chain: NMSDPRRPNKVLRY
Consider B31, for which the normalised SPOT signal, Boehringer light units (BLU); mean over the file's lines of this peptide in experiment [1] is 641; in experiment [2] it was 1060.

B32: O60306 1318-1331 (peptide)
chain: NNPLIGRPNKVTTV
For B32, the figures for the normalised SPOT signal, Boehringer light units (BLU); mean over the file's lines of this peptide in experiment [1] and in experiment [2] were 45.8 and 267, respectively.

B33: Q92186 286-299 (peptide)
chain: NKVHIKRPTTGLLM
In the case of B33, the figures for the normalised SPOT signal, Boehringer light units (BLU); mean over the file's lines of this peptide in experiment [1] and in experiment [2] were 32.2 and 125, respectively.

B34: Q9Y3I1 502-515 (peptide)
chain: NDRFPFRPSRGRPT
As for B34, the normalised SPOT signal, Boehringer light units (BLU); mean over the file's lines of this peptide stood at 2600 in experiment [1] and 4510 in experiment [2].

B35: Q9BRN8 20-34 (peptide)
chain: MVPGPARPPGSSWD
In the case of B35, the values for the normalised SPOT signal, Boehringer light units (BLU); mean over the file's lines of this peptide in experiment [1] and in experiment [2] were 45.4 and 33.6, respectively.

B36: Q15598 1736-1749 (peptide)
chain: NETGLSRPRRTAMS
B36: the normalised SPOT signal, Boehringer light units (BLU); mean over the file's lines of this peptide was 742 in experiment [1] and 154 in experiment [2].

B37: Q9Y6X2 222-235 (peptide)
chain: NGAEPKRPSRPINI
B37: the figures for the normalised SPOT signal, Boehringer light units (BLU); mean over the file's lines of this peptide in experiment [1] and in experiment [2] were 3920 and 105, respectively.

B38: O60289 975-988 (peptide)
chain: ARKQPRRPHFLLEP
B38: the normalised SPOT signal, Boehringer light units (BLU); mean over the file's lines of this peptide in experiment [1] stood at 30.4; in experiment [2], 31.6.
